What was measured:
[1] = biological target: T1, biotinylated OPTN (26–196 aa) (UniProt Q96CV9 26-196, NH2-GGG(Lys[Biotin])-CONH2 joined at the C-terminal sortase recognition sequence by Sortase 5Y); experiment: BLI; biotinylated OPTN (26–196 aa) immobilised on a streptavidin biosensor (Octet); monobody as analyte at various concentrations; 30 °C; 50 mM Hepes-KOH pH 7.5, 300 mM NaCl, 0.05% Tween 20, 0.1% PEG6000; association 600 s, dissociation 600 s; global fitting; settings: both partners purified
T1 construct: also called Biotin-modified OPTN; not shown: GST, N-terminal, cleaved; His6, C-terminal, cleaved; biotin (GGGK-biotin), C-terminal, kept

[2] = biological target: T2, OPTN (26–196 aa)-EGFP with E50K (UniProt Q96CV9 26-196, E50K); experiment: pull-down; recombinant GST-TBK1 (677–729 aa), OPTN (26–196 aa)-EGFP or EGFP alone, and monobodies, 4.5 μM each, with glutathione Sepharose in 50 mM Tris–HCl pH 7.5, 120 mM NaCl, 1 mM TCEP, 10% glycerol, 30 min at room temperature; washes with 0.1% Triton X-100; CBB staining; settings: both partners purified
T2 construct: source: E. coli BL21-CodonPlus(DE3)-RIL, purified (Ni-NTA); not shown: EGFP, C-terminal, kept
T2 sequence (Q96CV9 26-196 E50K): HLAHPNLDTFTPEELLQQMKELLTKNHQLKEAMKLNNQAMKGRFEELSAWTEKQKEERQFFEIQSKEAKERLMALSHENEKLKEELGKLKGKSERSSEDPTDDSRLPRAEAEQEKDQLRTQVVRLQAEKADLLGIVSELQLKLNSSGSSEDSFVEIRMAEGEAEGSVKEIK

T1 sequence (Q96CV9 26-196): as the sequence (Q96CV9 26-196 E50K) above, with K25E counted along it

Kd [1] [nM]	binding result [2]	Binder
4.56		recombinant OPTN monobody clone #3 (His6-tagged) (designed binder) VSDVPRDLEVVAATPTSLLISWDAPWWWDYGYMYYRITYGETGGNSPVQEFTVPGSKSTATISGLKPGVDYTITVYAWDVAEWVTKVATSWPISINYRT
	binds	GST-TBK1 (677–729 aa) (domain or fragment, UniProt Q9UHD2 677-729, looked up, Plasmid pGEX6P1_opt-TBK1 (677–729aa); also called GST-tagged TBK1 (677–729 aa); GST-TBK chimera; source: E. coli BL21-CodonPlus(DE3)-RIL, purified (glutathione Sepharose); not shown: GST, N-terminal, kept) YPSSNTLVEMTLGMKKLKEEMEGVVKELAENNHILERFGSLTMDGGLRNVDCL
6.19		recombinant OPTN monobody clone #4 (His6-tagged) (designed binder) VSDVPRDLEVVAATPTSLLISWDAPWFWYFPYYYQEWYYRITYGETGGNSPVQEFTVPGSKSTATISGLKPGVDYTITVYAAMELKGIQEYRNPISINYRT
